Holding throughout (assay): SPR captured Fab
One assay has as its target Human CD33 R69G (human, UniProt P20138 18-259).
The target of assay [1] is T1, V domain of human CD33 (human, UniProt P20138 18-139, limits assumed).
T1 construct: Whole entry named; also called Human CD33 V domain
Description: (§1) Kinetics and affinity of a series of Fab fragments of anti-CD33 antibodies with different CD33 variants (human CD33 ECD, cyno CD33 ECD, V-domain of human CD33, C-domain or human CD33 and selected CD33 SNPs) were assessed by surface plasmon resonance using Biacore 8K instrument (GE Healthcare). Anti-Fab antibody was immobilized on a CM5 chip using standard amine coupling chemistry. CD33 FABs were captured on the anti-Fab chip at a density of ˜100 RU. Solutions containing different concentrations of soluble monomeric CD33 or its domains were injected over the captured FABs and control surfaces at 30 μl/min at 37° C. Surfaces were regenerated between cycles by quick injection of 10 mM glycine, pH 1.8. To obtain kinetic rate constants double-referenced data were fit to a 1:1 interaction model using Biacore 8K Evaluation software (GE Healthcare). The equilibrium binding constant KD was determined by the ratio of binding rate constants kd/kₐ.

Assay [2] has as its target T1, V domain of human CD33. The source holds these as a separate data set.
Description: as §1
The target of the next assay is Human CD33 S128N (human, UniProt P20138 18-259).

Like-named read-outs stand apart in the source and are kept apart here.

B1: ADI-11776 Fab (Fab, V domains shown)
VH: EVQLLESGGGLVQPGGSLRLSCAASGFTFSKYTMSWVRQAPGKGLEWVSAIVGSGESTYFADSVKGRFTISRDNSKNTLYLQMNSLRAEDTAVYYCAREGGPYYDSSGYFVYYGMDVWGQGTTVTVSS
VL: DIQMTQSPSTLSASVGDRVTITCRASQSISSWLAWYQQKPGKAPKLLIYKASSLESGVPSRFSGSGSGTEFTLTISSLQPDDFATYYCQQYDDLPTFGGGTKVEIK
notes: Fab fragment; also called Ab3; H76
Broadly, the Kd is the concentration at which binding is half-saturated. Higher therefore signals a looser complex. As usually defined, the koff is a measure of how fast the partners let go of each other. Lower therefore signals slow dissociation. Broadly, the kon is a measure of how fast the partners come together. For the molecule B1, in the assay with Human CD33 R69G, binding was put at a Kd of 0.22 nM. The koff with Human CD33 R69G worked out at 0.000426 s⁻¹; with V domain of human CD33 [1] it was 0.0143 s⁻¹; in the assay with V domain of human CD33 [2], 0.0143 s⁻¹. This molecule came in with a kon in the assay with Human CD33 R69G of 1.98e+06 M⁻¹ s⁻¹.

B2: ADI-11826 Fab (Fab, V domains shown)
VH: EVQLVESGGGLVQPGGSLRLSCAASGFTFPGYWMSWVRQAPGKGLEWVANINQDGSEVYYVDSVKGRFTISRDNAKNSLYLQMNSLRAEDTAVYYCAREANYYGNVGDDYWGQGTLVTVSS
VL: DIQMTQSPSSLSASVGDRVTITCRASQSIYNYLNWYQQKPGKAPKLLIYAASSTQSGVPSRFSGSGSGTDFTLTISSLQPEDFATYYCQQAFHVPITFGGGTKVEIK
notes: Fab fragment; also called Ab26
With B2, the results for the Kd with Human CD33 S128N and in the assay with Human CD33 R69G were 2.65 nM and 3.83 nM, respectively. The koff was found to be 0.00574 s⁻¹ with Human CD33 S128N, 0.00723 s⁻¹ in the assay with Human CD33 R69G, 0.00225 s⁻¹ with V domain of human CD33 [1] and 0.00225 s⁻¹ in the assay with V domain of human CD33 [2]. In addition, the kon was found to be 2.17e+06 M⁻¹ s⁻¹ in the assay with Human CD33 S128N and 1.89e+06 M⁻¹ s⁻¹ with Human CD33 R69G.

The values are drawn from US20250154261A1 (published 2025).
